The record followed here is patent US20230381281A1, “PHARMACEUTICAL COMPOSITION COMPRISING GLUCAGON/GLP-1/GIP TRIPLE AGONIST OR LONG-ACTING CONJUGATE THEREOF FOR PREVENTING OR TREATING LUPUS-RELATED DISEASES” (HANMI PHARM. CO., LTD., priority 2020, published 2023).

Bridge positions count the residues as written; N and C are the ends. Square brackets hold non-standard residues; d marks the D form. Ends that are not written are not given here. * marks the point of attachment. Acetyl(2-(4-imidazolyl)) = O=C(Cc1c[nH]cn1)*; Aib = CC(C)(N)C(=O)O

Common to all, as to assay: cell-based or functional assay
In one test the target is human GCG receptor (human, UniProt P47871 26-477).
Sequence of human GCG receptor (P47871 26-477): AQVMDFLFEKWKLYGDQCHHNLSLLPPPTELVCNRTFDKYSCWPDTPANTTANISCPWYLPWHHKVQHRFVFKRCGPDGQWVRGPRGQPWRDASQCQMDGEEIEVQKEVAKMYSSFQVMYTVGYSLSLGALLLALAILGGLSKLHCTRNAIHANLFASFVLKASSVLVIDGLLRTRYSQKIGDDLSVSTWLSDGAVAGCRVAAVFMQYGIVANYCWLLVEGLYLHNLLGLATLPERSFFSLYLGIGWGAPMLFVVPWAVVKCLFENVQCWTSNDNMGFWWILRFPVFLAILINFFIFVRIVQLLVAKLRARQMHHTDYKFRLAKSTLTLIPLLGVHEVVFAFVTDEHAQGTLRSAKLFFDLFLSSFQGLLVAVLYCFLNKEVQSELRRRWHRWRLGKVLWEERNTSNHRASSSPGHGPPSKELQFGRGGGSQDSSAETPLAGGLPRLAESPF
The target in the next test is T1, human GIP receptor (human, UniProt P48546 22-466).
T1 sequence (looked up): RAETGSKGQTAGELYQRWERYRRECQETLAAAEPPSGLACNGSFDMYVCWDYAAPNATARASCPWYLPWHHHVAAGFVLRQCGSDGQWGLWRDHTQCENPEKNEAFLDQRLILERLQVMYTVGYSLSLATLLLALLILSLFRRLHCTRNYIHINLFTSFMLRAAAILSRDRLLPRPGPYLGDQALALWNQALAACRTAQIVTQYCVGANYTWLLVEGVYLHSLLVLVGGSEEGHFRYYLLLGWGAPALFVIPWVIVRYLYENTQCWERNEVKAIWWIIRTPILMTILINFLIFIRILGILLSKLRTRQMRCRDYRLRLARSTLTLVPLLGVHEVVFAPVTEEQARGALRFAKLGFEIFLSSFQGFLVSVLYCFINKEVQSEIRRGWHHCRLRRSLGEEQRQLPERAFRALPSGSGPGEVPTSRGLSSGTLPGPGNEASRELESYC

Another test concerns the target human GLP-1 receptor (human, UniProt P43220 24-463).

For the molecule {Acetyl(2-(4-imidazolyl))}-GEGTFISDYSIQLDEIAVQDFVEWLLAQKPSSGAPPPSHG [Triple agonist of SEQ ID NO: 13], the “In vitro activity compared to native peptide (%) vs Glucagon” value (“In vitro activity … (%) vs Glucagon” for short) in the test with human GCG receptor was under 0.1%. Moreover, in the test with human GIP receptor, the “In vitro activity compared to native peptide (%) vs GIP” value (from here on “In vitro activity … (%) vs GIP”) was under 0.1%. Moreover, the “In vitro activity compared to native peptide (%) vs GLP-1” value (“In vitro activity … (%) vs GLP-1” for short) with human GLP-1 receptor is under 0.1%.
As for {Acetyl(2-(4-imidazolyl))}-GQGTFTSDLSIQYEEEAQQDFVEWLKDTGPSSGAPPPSHG [Triple agonist of SEQ ID NO: 20], the “In vitro activity … (%) vs Glucagon” value with human GCG receptor is under 0.1%. In addition, in the test with human GIP receptor, the “In vitro activity … (%) vs GIP” value is under 0.1%. Besides, the “In vitro activity … (%) vs GLP-1” value in the test with human GLP-1 receptor is under 0.1%.
Consider Y[Aib]QGTFTSDYSKYLDECRAKEFVQWLLAQKGKKNDWKHNIT (bridge 16-20) [Triple agonist of SEQ ID NO: 23], for which the “In vitro activity … (%) vs Glucagon” value with human GCG receptor amounted to 9.3%. The “In vitro activity … (%) vs GIP” value with human GIP receptor is under 0.1%. For the same molecule, in the test with human GLP-1 receptor, the “In vitro activity … (%) vs GLP-1” value is 4.01%.
As for {Acetyl(2-(4-imidazolyl))}-GQGTFTSDLSIQYDSEHQRDFIEWLKDTGPSSGAPPPSHG [Triple agonist of SEQ ID NO: 19], in the test with human GCG receptor, the “In vitro activity … (%) vs Glucagon” value is under 0.1%. In addition, the “In vitro activity … (%) vs GIP” value with human GIP receptor was under 0.1%. Further, the “In vitro activity … (%) vs GLP-1” value with human GLP-1 receptor is under 0.1%.
For Y[Aib]QGTFTSDYSKYLDEKRAKEFVQWLLDHCPSSGQPPPS (bridge 16-20) [Triple agonist of SEQ ID NO: 96], in the test with human GCG receptor, the “In vitro activity … (%) vs Glucagon” value came to 195%. Also, in the test with human GIP receptor, the “In vitro activity … (%) vs GIP” value was 5.2%. In addition, the “In vitro activity … (%) vs GLP-1” value with human GLP-1 receptor was determined as 34.4%.
For H[Aib]QGTFTSDVSSYLDGQAQKEFIAWLVKGC [Triple agonist of SEQ ID NO: 2], in that order: under 0.1%, under 0.1% and 5.9%.
For H[Aib]QGTFTSDVSKYLDGQAAQEFVAWLLAGGGPSSGAPPPSC [Triple agonist of SEQ ID NO: 10], in that order: under 0.1%, under 0.1% and 46%.
With {Acetyl(2-(4-imidazolyl))}-GEGTFISDLSKYMDEQAVQLFVEWLMAGGPSSGAPPPSHG [Triple agonist of SEQ ID NO: 12], in the test with human GCG receptor, the “In vitro activity … (%) vs Glucagon” value was under 0.1%. In addition, the “In vitro activity … (%) vs GIP” value with human GIP receptor is under 0.1%. Further, the “In vitro activity … (%) vs GLP-1” value in the test with human GLP-1 receptor turned out to be 0.4%.
In the case of Y[Aib]QGTFTSDYSKALDEKAAKEFVNWLLDHHPSSGQPPPSC (bridge 16-20) [Triple agonist of SEQ ID NO: 98], in the test with human GCG receptor, the “In vitro activity … (%) vs Glucagon” value came to 8.2%. The “In vitro activity … (%) vs GIP” value in the test with human GIP receptor turned out to be 47.1%. The “In vitro activity … (%) vs GLP-1” value with human GLP-1 receptor amounted to 28.1%.
For {Acetyl(2-(4-imidazolyl))}-GEGTFTSDLSKYLDSRRQQLFVQWLKAGGPSSGAPPPSHG [Triple agonist of SEQ ID NO: 11], in that order: under 0.1%, under 0.1% and 1.4%.
For {Acetyl(2-(4-imidazolyl))}-GQGTFTSDLSKQMDSEAQQLFIEWLKNGGPSSGAPPPSHG [Triple agonist of SEQ ID NO: 16], in that order: under 0.1%, under 0.1% and 2.1%.
In the case of Y[Aib]QGTFTSDYSKYLDEKRAKEFVQWLLDCHPSSGQPPPS (bridge 16-20) [Triple agonist of SEQ ID NO: 97], the “In vitro activity … (%) vs Glucagon” value with human GCG receptor amounted to 62.8%. Besides, the “In vitro activity … (%) vs GIP” value with human GIP receptor was found to be 2.6%. Moreover, in the test with human GLP-1 receptor, the “In vitro activity … (%) vs GLP-1” value came to 10.5%.
On to {Acetyl(2-(4-imidazolyl))}-[Aib]QGTFTSDYSIAMDEIHQKDFVNWLLNTKC (bridge 15-19) [Triple agonist of SEQ ID NO: 94], for which, in the test with human GCG receptor, the “In vitro activity … (%) vs Glucagon” value was under 0.1%. Further, the “In vitro activity … (%) vs GIP” value with human GIP receptor is under 0.1%. Further, in the test with human GLP-1 receptor, the “In vitro activity … (%) vs GLP-1” value amounted to 0.5%.
With {Acetyl(2-(4-imidazolyl))}-[Aib]EGTFTSDYSIAMDEIHQKDFVDWLLAEKC (bridge 15-19) [Triple agonist of SEQ ID NO: 91], the “In vitro activity … (%) vs Glucagon” value in the test with human GCG receptor was 16.8%. The “In vitro activity … (%) vs GIP” value with human GIP receptor stood at 0.3%. For the same molecule, the “In vitro activity … (%) vs GLP-1” value with human GLP-1 receptor is 31.9%.
For Y[Aib]QGTFTSDYSKYLDEKRAKEFVQWLLCHHPSSGQPPPS (bridge 16-20) [Triple agonist of SEQ ID NO: 95], in that order: 0.4%, under 0.1% and 2.1%.
With {Acetyl(2-(4-imidazolyl))}-GQGTFTSDLSKQMDEERAREFIEWLLAQKPSSGAPPPSHG [Triple agonist of SEQ ID NO: 17], the “In vitro activity … (%) vs Glucagon” value in the test with human GCG receptor was under 0.1%. Moreover, the “In vitro activity … (%) vs GIP” value with human GIP receptor was under 0.1%. For the same molecule, in the test with human GLP-1 receptor, the “In vitro activity … (%) vs GLP-1” value amounted to 0.2%.
In the case of Y[Aib]QGTFTSDYSKALDEKAAKEFVQWLLDQHPSSGQPPPSC (bridge 16-20) [Triple agonist of SEQ ID NO: 100], the “In vitro activity … (%) vs Glucagon” value with human GCG receptor was determined as 12.7%. In addition, the “In vitro activity … (%) vs GIP” value with human GIP receptor came out at 118%. The “In vitro activity … (%) vs GLP-1” value in the test with human GLP-1 receptor is 42.2%.
For Y[Aib]QGTFTSDYSKCLDEKRAKEFVQWLLDHHPSSGQPPPS (bridge 16-20) [Triple agonist of SEQ ID NO: 22], in the test with human GCG receptor, the “In vitro activity … (%) vs Glucagon” value came out at 140%. In addition, the “In vitro activity … (%) vs GIP” value in the test with human GIP receptor amounted to 59.7%. Also, in the test with human GLP-1 receptor, the “In vitro activity … (%) vs GLP-1” value was 20.1%.
{Acetyl(2-(4-imidazolyl))}-[Aib]QGTFTSDYSIAMDEIHQKDFVNWLLAQKC (bridge 15-19) [Triple agonist of SEQ ID NO: 92]: the “In vitro activity … (%) vs Glucagon” value with human GCG receptor is under 0.1%. Besides, the “In vitro activity … (%) vs GIP” value in the test with human GIP receptor amounted to 0.4%. Further, the “In vitro activity … (%) vs GLP-1” value with human GLP-1 receptor was 0.8%.
Regarding {Acetyl(2-(4-imidazolyl))}-GQGTFTSDYSIQLDEIAVRDFVEWLKNGGPSSGAPPPSHG [Triple agonist of SEQ ID NO: 14], in the test with human GCG receptor, the “In vitro activity … (%) vs Glucagon” value was under 0.1%. The “In vitro activity … (%) vs GIP” value with human GIP receptor was under 0.1%. In the test with human GLP-1 receptor, the “In vitro activity … (%) vs GLP-1” value was found to be 28%.
On to Y[Aib]QGTFTSDYSKYLDECRAKEFVQWLLDHHPSSGQPPPS (bridge 16-20) [Triple agonist of SEQ ID NO: 21], for which the “In vitro activity … (%) vs Glucagon” value with human GCG receptor came to 267%. Further, the “In vitro activity … (%) vs GIP” value with human GIP receptor was 22.7%. Also, the “In vitro activity … (%) vs GLP-1” value with human GLP-1 receptor worked out at 17.8%.
On to {Acetyl(2-(4-imidazolyl))}-GQGTFTSDLSKQMDSERAREFIEWLKNTGPSSGAPPPSHG [Triple agonist of SEQ ID NO: 18], for which the “In vitro activity … (%) vs Glucagon” value with human GCG receptor is under 0.1%. For the same molecule, the “In vitro activity … (%) vs GIP” value with human GIP receptor was under 0.1%. For the same molecule, the “In vitro activity … (%) vs GLP-1” value with human GLP-1 receptor is under 0.1%.
For the molecule {Acetyl(2-(4-imidazolyl))}-[Aib]QGTFTSDYSKYLDEKRQKEFVNWLLAQKC (bridge 15-19) [Triple agonist of SEQ ID NO: 93], in the test with human GCG receptor, the “In vitro activity … (%) vs Glucagon” value was 0.3%. Further, in the test with human GIP receptor, the “In vitro activity … (%) vs GIP” value came out at 0.7%. In addition, the “In vitro activity … (%) vs GLP-1” value in the test with human GLP-1 receptor worked out at 5.7%.
With Y[Aib]QGTFTSDYSKALDEKAAKDFVNWLLDHHPSSGQPPPSC (bridge 16-20) [Triple agonist of SEQ ID NO: 99], the “In vitro activity … (%) vs Glucagon” value in the test with human GCG receptor worked out at 14.9%. Besides, the “In vitro activity … (%) vs GIP” value with human GIP receptor came out at 57.7%. Also, in the test with human GLP-1 receptor, the “In vitro activity … (%) vs GLP-1” value came to 20.9%.
Y[Aib]QGTFTSDYSKALDEKAAKDFVNWLLDQHPSSGQPPPSC (bridge 16-20) [Triple agonist of SEQ ID NO: 102]: in the test with human GCG receptor, the “In vitro activity … (%) vs Glucagon” value amounted to 29.5%. In the test with human GIP receptor, the “In vitro activity … (%) vs GIP” value worked out at 58%. Further, in the test with human GLP-1 receptor, the “In vitro activity … (%) vs GLP-1” value worked out at 23.3%.
For {Acetyl(2-(4-imidazolyl))}-[Aib]EGTFTSDYSIAMDEIHQKDFVNWLLAQKC (bridge 15-19) [Triple agonist of SEQ ID NO: 90], the “In vitro activity … (%) vs Glucagon” value with human GCG receptor was under 0.1%. For the same molecule, in the test with human GIP receptor, the “In vitro activity … (%) vs GIP” value is under 0.1%. Moreover, the “In vitro activity … (%) vs GLP-1” value in the test with human GLP-1 receptor is 7.4%.
